Laboratory results from US20250042970A1 (AURINIA PHARMACEUTICALS, published 2025).
Ends that are not written are not given here. pIg22 = chimeric Ig-Fc consisting of the CH2 domain of PIg18 (IgG2 derivative) and the CH3 domain of IgG1

How the values were obtained:
[1] = biological target: T1, FLAG-tagged cynomolgous APRIL (cynomolgus monkey, UniProt A0ACM8R0G4 110-250 (rhesus entry)); test: BIACORE SPR; NB = No binding
T1 construct: FLAG-tagged, expressed with TPA signal peptide; also called cyAPRIL
T1 sequence: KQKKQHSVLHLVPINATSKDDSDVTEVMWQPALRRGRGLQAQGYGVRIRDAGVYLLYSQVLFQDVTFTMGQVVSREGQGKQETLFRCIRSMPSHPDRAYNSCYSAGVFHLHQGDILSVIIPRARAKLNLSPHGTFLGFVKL
Protocol: (§1) For human BAFF, cynomolgus monkey APRIL, and mouse APRIL measurements, mouse monoclonal antibody (IgG1) anti-FLAG M2 (Sigma Aldrich, Cat. No. F1804) was immobilized on CM3 sensor chips (GE Healthcare, Cat. No. BR-1005-41) according to the manufacturer's protocol. Antibody was diluted to 30 μg/ml in immobilization buffer (10 mM pH 5±0.20; GE Healthcare; GE Healthcare, Catalog No. BR-1003-51). […] Unreacted sites were quenched with 35 μl of 1M ethanolamine-HCl, pH 8.5 (GE Healthcare, GE Healthcare, Cat. No. BR-1000-50). This procedure typically yielded 3,000-4,000 response units (RU) of coupled antibody.
(§2) The fusion polypeptides were diluted in HBS-EP buffer and flowed over ligand-coated sensor chips. The variant BCMA-Ig and surrogate control fusion proteins were injected at three concentrations (1.5 nM, 15 nM, and 150 nM at 30 μl/min for 2 minutes per association phase) in a single binding cycle, followed by a 20 minute incubation with HBS-EP buffer containing no protein at the same flow rate. A similar protocol was followed for Z-TACI-Ig, except that the injections were at 4.5 nM, 45 nM, and 450 nM.
Using available information from the structures and published literature, several residues in BAv8-10 were targeted for substitution with conserved as well as non-conserved residues and their effect on BAFF and APRIL binding was assessed by BIACORE.

[2] = biological target: T2, FLAG-tagged recombinant human APRIL (human, UniProt O75888 105-250); test: KinExA
T2 construct: KINEXA ligand; also called huAPRIL
T2 sequence: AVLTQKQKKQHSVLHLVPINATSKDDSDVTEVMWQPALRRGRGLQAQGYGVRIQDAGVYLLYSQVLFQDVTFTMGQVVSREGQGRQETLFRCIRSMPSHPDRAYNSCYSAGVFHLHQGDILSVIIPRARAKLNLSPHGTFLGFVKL
Protocol: (§3) Equilibrium measurements were performed using FLAG-tagged, recombinant huBAFF and huAPRIL ligands. Fixed ligand concentrations of human BAFF or human APRIL were incubated with serial dilutions of the variant BCMA ECD-Ig fusion polypeptides, and free ligand was detected in a KINEXA 3200 Instrument. variant BCMA ECD-Ig fusion polypeptides were first diluted in equilibration buffer (1×PBS, pH 7.4, 1 mg/ml BSA) to a range of concentrations from 10 nM to 100 fM. The linear portion of the dilution series was typically 2-fold. Ligands were diluted in equilibration buffer to fixed concentrations ranging from 5 to 20 pM and then incubated with the variant BCMA-Ig dilutions in total reaction volumes ranging from 4.5 to 15 ml. Samples were incubated at room temperature for 48-72 hours to reach equilibrium. For each data point, a fresh column of 850 μl of bead slurry coated with Variant BAv-238475-Ig was introduced into the KINEXA flow cell. Equilibrated samples ranging from 1 to 5 ml reaction volume were injected at a flow rate of 0.25 ml/min. […] The DyLight 649 fluorescent signal was detected using the red filter set (620/30 nanometer excitation filter, 670/40 nanometer emission filter, 645 nanometer dichroic filter) on the KinExA instrument and converted to a voltage signal that was directly proportional to the concentration of free ligand in the equilibrated sample.
(§4) The standard kinetic exclusion assays and data analyses described above were performed on protein preparations of various variant BCMA ECD-Ig fusion polypeptides, as well as Z-TACI-Ig and [S40G]huBCMA ECD-Ig fusion polypeptides. FIG. 8A, FIG. 8B, and Table 4 summarize the binding data for representative variant BCMA ECD-Ig polypeptides and controls in molar concentrations of huBAFF or huAPRIL determined by KINEXA binding assays.

FLAG-tagged human BAFF [3] = biological target: T3, FLAG-tagged human BAFF (human, UniProt Q9Y275 134-285, limits assumed); test: KinExA
T3 construct: used in BIACORE (Ex. 9) and KINEXA (Ex. 11); also called huBAFF
Protocol: as §3, §4

[4] = biological target: T2, FLAG-tagged recombinant human APRIL; test: KinExA; remark: listed apart in the source
Protocol: as §3
(§5) Table 5 provides the selectivities of exemplary variant BCMA polypeptides with respect to BAFF and APRIL.

FLAG-tagged human BAFF [5] = biological target: T3, FLAG-tagged human BAFF; test: KinExA; remark: listed apart in the source
Protocol: as §3, §5

[6] = biological target: T1, FLAG-tagged cynomolgous APRIL; test: BIACORE SPR
Protocol: as §1, §2
(§6) The various fusion proteins described above were expressed and purified as described previously (Examples 2 and 3 for the CET1019AS based plasmids and Examples 7 and 8 for the pcDNA based plasmids). […] The BAv9-1-Ig Fc proteins typically exist in solution as a dimeric fusion protein. The purified fusion proteins were assayed for binding activity using BIACORE (Example 9) and KINEXA (Example 11) assays.

FLAG-tagged human BAFF [7] = biological target: T3, FLAG-tagged human BAFF; test: BIACORE SPR
Protocol: as §1, §2, §6

[8] = biological target: T1, FLAG-tagged cynomolgous APRIL; test: BIACORE SPR; remark: listed apart in the source
Protocol: as §1, §2
(§7) Sequence optimization involved generating revertants from the variant BCMA ECD-Ig molecules using standard site-directed mutagenesis methods such as by SOEing as described herein above. Single as well as multiple revertants from twelve different variant-BCMA-pIg18 were generated, cloned in the pcDNA3.1 vector (Life Technologies, as described in Example 6), expressed and purified as described in Examples 6-8. The resulting proteins were assayed for their binding characteristics using Surface Plasmon Resonance as described in Example 9.

FLAG-tagged human BAFF [9] = biological target: T3, FLAG-tagged human BAFF; test: BIACORE SPR; remark: listed apart in the source
Protocol: as §1, §2, §7

B1: BAv45-Ig (Fc fusion)
chain: AGQCSQNEYFDHLLRACIPCQVNCSSNTPPLTCQRYCNAGVTNSVKGTNA
notes: not shown: PIg18: human IgG2 Fc, Ser at Fc positions 4, 5, 11 (native Cys)
binding result [1]: no binding (tested: 150 nM)

B2: BAv60-Ig (Fc fusion)
chain: AGQCSQNEYFDSLVRHCIPCQVRCSSNTPPLTCQRYCNAGVTNSVKGTNA
notes: also called BAv60 (2)-Ig; not shown: PIg18: human IgG2 Fc, Ser at Fc positions 4, 5, 11 (native Cys)
Kd [2]: 51.4 pM
fold improvement over control [2]: 0.0031 fold
Kd (FLAG-tagged human BAFF [3]): 0.0537 pM
fold improvement over control (FLAG-tagged human BAFF [3]): 4200 fold
Selectivity for huAPRIL (KD BAFF/KD APRIL) [4]: 0.001 ratio
Selectivity for huBAFF (KD APRIL/KD BAFF) (FLAG-tagged human BAFF [5]): 957 ratio

B3: BAv74-Ig (Fc fusion)
chain: AGQCSQNEYFDHLIRACTPCQVRCSSNTPPLTCQRYCNAGVTNSVKGTNA
notes: as for B1
Kd [2]: 18.3 pM
fold improvement over control [2]: 0.00871 fold
Kd (FLAG-tagged human BAFF [3]): 21.8 pM
fold improvement over control (FLAG-tagged human BAFF [3]): 10.4 fold
Selectivity for huAPRIL (KD BAFF/KD APRIL) [4]: 1.19 ratio
Selectivity for huBAFF (KD APRIL/KD BAFF) (FLAG-tagged human BAFF [5]): 0.84 ratio

B4: BAv79-Ig (Fc fusion)
chain: AGQCSQNEYFDPLIRACIPCQARCSSNTPPLTCQRYCNAGVTNSVKGTNA
notes: as for B1
binding result [1]: no binding (tested: 150 nM)

B5: BAv53-Ig (Fc fusion)
chain: AGQCSQNEYFDSLIRHCIPCQVRCSSNTPPLTCQRYCNAGVTNSVKGTNA
notes: as for B1
Kd [2]: 34 pM
fold improvement over control [2]: 0.00469 fold
Kd (FLAG-tagged human BAFF [3]): 0.462 pM
fold improvement over control (FLAG-tagged human BAFF [3]): 488 fold
Selectivity for huAPRIL (KD BAFF/KD APRIL) [4]: 0.014 ratio
Selectivity for huBAFF (KD APRIL/KD BAFF) (FLAG-tagged human BAFF [5]): 73.6 ratio

B6: BAv85-5L-pIg22 (Fc fusion, human)
chain: AGQCSQNEYFDHLVRACIPCQARCSSNTPPLTCQRYCNAGVTNSVGGGGS-pIg22
modifications: not fully specified; cysteine pairing not given here
notes: domain: Fc; not shown: PIg22: chimeric Fc, CH2 domain of PIg18 (human IgG2 derivative) and CH3 domain of human IgG1
Kd [6]: 784 pM
Kd (FLAG-tagged human BAFF [7]): 6.76 pM

B7: BAv64-Ig (Fc fusion)
chain: AGQCSQNEYFDHLYRACIPCQVRCSSNTPPLTCQRYCNAGVTNSVKGTNA
notes: as for B1
binding result [1]: no binding (tested: 150 nM)

B8: BAv51-Ig (Fc fusion)
chain: AGQCSQNEYFDHLIRACIPCQARCSSNTPPLTCQRYCNAGVTNSVKGTNA
notes: also called BAv51 (2)-Ig; not shown: PIg18: human IgG2 Fc, Ser at Fc positions 4, 5, 11 (native Cys)
Kd [2]: 70.8 pM
fold improvement over control [2]: 0.00225 fold
Kd (FLAG-tagged human BAFF [3]): 0.192 pM
fold improvement over control (FLAG-tagged human BAFF [3]): 1180 fold
Selectivity for huAPRIL (KD BAFF/KD APRIL) [4]: 0.003 ratio
Selectivity for huBAFF (KD APRIL/KD BAFF) (FLAG-tagged human BAFF [5]): 369 ratio

B9: BAv55-Ig (Fc fusion)
chain: AGQCSQNEYFDHLGRACIPCQVRCSSNTPPLTCQRYCNAGVTNSVKGTNA
notes: as for B1
binding result [1]: no binding (tested: 150 nM)

B10: BAv58-Ig (Fc fusion)
chain: AGQCSQNEYFDSLVRHCIPCQIRCSSNTPPLTCQRYCNAGVTNSVKGTNA
notes: as for B1
Kd [2]: 31 pM
fold improvement over control [2]: 0.00514 fold
Kd (FLAG-tagged human BAFF [3]): 0.24 pM
fold improvement over control (FLAG-tagged human BAFF [3]): 940 fold
Selectivity for huAPRIL (KD BAFF/KD APRIL) [4]: 0.008 ratio
Selectivity for huBAFF (KD APRIL/KD BAFF) (FLAG-tagged human BAFF [5]): 129 ratio

B11: BAv63-Ig (Fc fusion)
chain: AGQCSQNEYFDHLARACIPCQVRCSSNTPPLTCQRYCNAGVTNSVKGTNA
notes: as for B1
binding result [1]: no binding (tested: 150 nM)

B12: BAv83-5L-pIg22 (Fc fusion, human)
chain: AGQCSQNEYFDPLVRACIPCQIRCSSNTPPLTCQRYCNAGVTNSVGGGGS-pIg22
modifications: not fully specified; cysteine pairing not given here
notes: as for B6
Kd [6]: 861 pM
Kd (FLAG-tagged human BAFF [7]): 8.61 pM

B13: BAv49-5L-pIg22 (Fc fusion, human)
chain: AGQCSQNEYFDPLIRACIPCQVRCSSNTPPLTCQRYCNAGVTNSVGGGGS
notes: as for B6
Kd [6]: 1760 pM
Kd (FLAG-tagged human BAFF [7]): 14.1 pM

B14: BAv81-5L-pIg22 (Fc fusion, human)
chain: AGQCSQNEYFDPLVRACIPCQVRCSSNTPPLTCQRYCNAGVTNSVGGGGS-pIg22
modifications: not fully specified; cysteine pairing not given here
notes: as for B6
Kd [6]: 2420 pM
Kd (FLAG-tagged human BAFF [7]): 6.75 pM

B15: BAv82-Ig (Fc fusion)
chain: AGQCSQNEYFDPLVRACIPCQARCSSNTPPLTCQRYCNAGVTNSVKGTNA
notes: as for B1
binding result [1]: no binding (tested: 150 nM)

B16: BAv78-Ig (Fc fusion)
chain: AGQCSQNEYFDHLLRACIPCQYTCSSNTPPLTCQRYCNAGVTNSVKGTNA
notes: as for B1
binding result [1]: no binding (tested: 150 nM)

B17: Variant 9-3-Ig (Fc fusion, human)
chain: AGQCSQNEYFDHLVRACIPCQVRCSSNTPPLTCQRYCNAGVTNSVKGTNAERKSSVECPPSPAPPVAGPSVFLFPPKPKDTLMISRTPEVTCVVVDVSHEDPEVQFNWYVDGVEVHNAKTKPREEQFNSTFRVVSVLTVVHQDWLNGKEYKCKVSNKGLPAPIEKTISKTKGQPREPQVYTLPPSREEMTKNQVSLTCLVKGFYPSDISVEWESNGQPENNYKTTPPMLDSDGSFFLYSKLTVDKSRWQQGNVFSCSVMHEALHNHYTQKSLSLSPGK
notes: domain: Fc; also called BAv9-3
fold improvement over control [2]: 0.008 fold
fold improvement over control (FLAG-tagged human BAFF [3]): 2660 fold
Selectivity for huAPRIL (KD BAFF/KD APRIL) [4]: 0.005 ratio
Selectivity for huBAFF (KD APRIL/KD BAFF) (FLAG-tagged human BAFF [5]): 221 ratio

B18: Variant 50234224-Ig (Fc fusion, human)
chain: AGQCSQNDYYDHLLRACIPCQLRCSSNNPPLTCQRYCNAGVTNSVKGTNAERKSSVECPPSPAPPVAGPSVFLFPPKPKDTLMISRTPEVTCVVVDVSHEDPEVQFNWYVDGVEVHNAKTKPREEQFNSTFRVVSVLTVVHQDWLNGKEYKCKVSNKGLPAPIEKTISKTKGQPREPQVYTLPPSREEMTKNQVSLTCLVKGFYPSDISVEWESNGQPENNYKTTPPMLDSDGSFFLYSKLTVDKSRWQQGNVFSCSVMHEALHNHYTQKSLSLSPGK
notes: domain: Fc; also called Parent 6
fold improvement over control [8]: 0.4 fold
fold improvement over control (FLAG-tagged human BAFF [9]): 4.2 fold
